± gives the uncertainty stated by the source.
B1: DnaJ homolog subfamily C member 5, residues 16 to 77; numbered along this chain, Q9H3Z4 (parent)
chain: LYHVLGLDKNATSDDIKKSYRKLALKYHPDKNPDNPEAADKFKEINNAHAILTDATKRNIYD
B2: Double-stranded RNA-binding protein Staufen homolog 1, residues 183 to 249; numbered along this chain, O95793 (parent)
chain: KSEISQVFEIALKRNLPVNFEVARESGPPHMKNFVTKVSVGEFVGEGEGKSKKISKKNAAIAVLEEL

Variants of: B1
Assay: abundance fitness (aPCA) (normalised: wild type 0, dead -1); higher = more abundant; growth selection in yeast, the domain comes from the species named
Details: Homo sapiens

Abundance fitness: each site, then its substitutions
H3: W -0.301 ± 0.098; M -0.153 ± 0.1; P -0.602 ± 0.093; I -0.423 ± 0.13; F -0.216 ± 0.22; N -0.27 ± 0.16; D -0.528 ± 0.24; E -0.114 ± 0.13; Y -0.489 ± 0.17; T -0.017 ± 0.08; S 0.147 ± 0.082; Q -0.116 ± 0.098; L -0.364 ± 0.074; R -0.185 ± 0.082; K -0.133 ± 0.17; G -0.157 ± 0.089; C -0.148 ± 0.22; A -0.14 ± 0.096
L5: E -0.14 ± 0.1; Y -0.606 ± 0.38; R -0.889 ± 0.1; G -0.713 ± 0.13; K -0.444 ± 0.14; Q 0.084 ± 0.13; S -0.267 ± 0.11; T -0.368 ± 0.27; V -0.906 ± 0.12; H 0.038 ± 0.35; P -0.221 ± 0.14; M -0.32 ± 0.26; N 0.123 ± 0.3
L1: R -0.741 ± 0.2; I -0.084 ± 0.21; F 0.197 ± 0.16; C -0.284 ± 0.43; W -0.352 ± 0.099; N 0.262 ± 0.17; T -0.542 ± 0.22; M 0.022 ± 0.15; E -0.14 ± 0.13; G -0.539 ± 0.11; A -0.124 ± 0.17; S -0.198 ± 0.11; K -0.269 ± 0.19
L7: S -0.345 ± 0.087; C -0.149 ± 0.1; K -0.365 ± 0.092; Q -0.309 ± 0.092; H -0.54 ± 0.36; I -0.477 ± 0.18; F -0.734 ± 0.15; R -0.608 ± 0.07; D -0.316 ± 0.14; T -0.721 ± 0.14; N -0.434 ± 0.22; E -0.298 ± 0.079; P -0.231 ± 0.14; A -0.298 ± 0.085
V4: K -0.646 ± 0.096; D -0.458 ± 0.13; L -0.292 ± 0.051; E -0.374 ± 0.11; G -0.599 ± 0.054; Y -0.553 ± 0.12; Q -0.546 ± 0.11; S -0.259 ± 0.07; M -0.078 ± 0.096; T -0.209 ± 0.084; W -0.687 ± 0.083; I -0.054 ± 0.074; C -0.056 ± 0.1; F -0.362 ± 0.15; R -0.765 ± 0.07; P -0.733 ± 0.1; N -0.15 ± 0.088; A 0.034 ± 0.085
Y2: R -0.922 ± 0.12; Q -0.358 ± 0.15; A -0.496 ± 0.091; G -0.28 ± 0.11; M -0.422 ± 0.12; E -0.098 ± 0.1; F -0.394 ± 0.14; S -0.516 ± 0.085; D -0.18 ± 0.17; V -0.873 ± 0.13; N -0.011 ± 0.17; W -0.534 ± 0.11; H -0.492 ± 0.12; I -0.809 ± 0.19; C -0.686 ± 0.11; T -0.357 ± 0.27; K -0.692 ± 0.13; L -0.653 ± 0.062
G6: Y -0.671 ± 0.41; W -1.02 ± 0.14; F -0.985 ± 0.17; N 0.069 ± 0.47; E -0.866 ± 0.17; K -0.751 ± 0.25; V -1.42 ± 0.16; C -0.466 ± 0.13; A -0.485 ± 0.1; M -0.655 ± 0.23; P -0.799 ± 0.12; S -0.559 ± 0.069; D -0.046 ± 0.12; R -0.488 ± 0.11; L -0.625 ± 0.089

Variants of: B2
Assay: as above
Details: Homo sapiens

Abundance fitness, by site and new letter:
I54: S -0.066 ± 0.045; Q -0.052 ± 0.042; Y -0.642 ± 0.084; V -0.075 ± 0.038; R -0.23 ± 0.033; T -0.132 ± 0.049; W -0.619 ± 0.05
A60: E -0.575 ± 0.056; D -0.649 ± 0.089; P -0.701 ± 0.064; Q -0.741 ± 0.057; R -0.882 ± 0.05; M -0.363 ± 0.058; W -1.02 ± 0.11; L -0.414 ± 0.039; V -0.489 ± 0.044; K -0.714 ± 0.075; H -0.803 ± 0.083; F -0.068 ± 0.081; Y -0.431 ± 0.072; C -0.067 ± 0.069; I -0.452 ± 0.083; T -0.466 ± 0.049; G -0.685 ± 0.051; N -0.739 ± 0.095
A62: C -0.223 ± 0.099; N 0.035 ± 0.097; F -0.787 ± 0.23; T -0.381 ± 0.059; Q -0.086 ± 0.055; I -0.384 ± 0.1; Y -0.788 ± 0.14; G -0.302 ± 0.05; P -0.56 ± 0.075; D -0.185 ± 0.072; K 0.023 ± 0.068; S -0.112 ± 0.05; R -0.121 ± 0.047; M -0.226 ± 0.065; H -0.242 ± 0.098; L -0.68 ± 0.055; V -0.403 ± 0.043; E -0.353 ± 0.058
K57: T 0.17 ± 0.28; S -0.43 ± 0.32; F -0.837 ± 0.42; V -0.218 ± 0.24; L -0.163 ± 0.19
N58: Q -0.126 ± 0.051; F -0.434 ± 0.071; Y -0.4 ± 0.075; R -0.105 ± 0.04; T -0.604 ± 0.064; P -0.763 ± 0.055; S -0.341 ± 0.043; C -0.451 ± 0.072; M -0.055 ± 0.053; A -0.171 ± 0.056; G -0.655 ± 0.054; E -0.238 ± 0.057; K -0.149 ± 0.048; H -0.284 ± 0.075; L -0.195 ± 0.041; I -0.614 ± 0.085; W -0.868 ± 0.087; V -0.565 ± 0.055
S55: L -0.843 ± 0.049; M -0.931 ± 0.074; T -0.815 ± 0.062; W -1 ± 0.079; F -0.915 ± 0.11; H -0.895 ± 0.11; E -0.662 ± 0.059; N -0.8 ± 0.096; I -0.718 ± 0.12; K -0.889 ± 0.069; G -0.818 ± 0.048; D -0.918 ± 0.096; V -0.865 ± 0.053; A -0.092 ± 0.042; Q -0.769 ± 0.066; Y -1.07 ± 0.16; C -0.535 ± 0.091
E65: I -0.573 ± 0.14; Y -0.212 ± 0.082; L -0.417 ± 0.044; K 0.118 ± 0.055; H -0.051 ± 0.1; D -0.081 ± 0.069; M -0.336 ± 0.054; A -0.038 ± 0.042; V -0.584 ± 0.045; R 0.093 ± 0.036; S 0.003 ± 0.048; C -0.348 ± 0.079; F -0.737 ± 0.17; P -0.386 ± 0.054; T -0.082 ± 0.044; W -0.388 ± 0.065; Q -0.016 ± 0.059; G -0.079 ± 0.043
I61: N -0.181 ± 0.069; H -0.218 ± 0.15; C -0.126 ± 0.082; S -0.045 ± 0.048; E -0.245 ± 0.068; F -0.39 ± 0.1; P -0.556 ± 0.065; Y -0.478 ± 0.085; T -0.292 ± 0.07; V -0.104 ± 0.054; M -0.095 ± 0.071; W -0.624 ± 0.076; G -0.184 ± 0.04; A 0.002 ± 0.066; R 0.002 ± 0.04; L -0.061 ± 0.044; Q -0.14 ± 0.059; D -0.53 ± 0.097; K -0.047 ± 0.057
L64: A -0.473 ± 0.049; W -0.67 ± 0.077; M -0.218 ± 0.048; F -1.15 ± 0.16; G -0.44 ± 0.05; C -0.209 ± 0.13; P -0.454 ± 0.053; V -0.5 ± 0.05; D -0.492 ± 0.075; K -0.472 ± 0.05; R -0.517 ± 0.042; E -0.433 ± 0.055; S -0.475 ± 0.043; N -0.423 ± 0.094; Y -0.713 ± 0.091; I -0.584 ± 0.12; Q -0.448 ± 0.056
K56: P -0.997 ± 0.2; V -0.32 ± 0.064; I -0.127 ± 0.19; C -0.524 ± 0.11; R -0.042 ± 0.044; W -0.825 ± 0.1; A -0.457 ± 0.069; D -0.661 ± 0.18; M -0.35 ± 0.1; H -0.743 ± 0.33; N -0.405 ± 0.34; Y -0.254 ± 0.092; F -0.476 ± 0.11; E -0.504 ± 0.094; Q -0.291 ± 0.1; L -0.36 ± 0.061; G -0.599 ± 0.056
A59: E -0.798 ± 0.065; F -0.911 ± 0.21; I -1.03 ± 0.32; R -0.843 ± 0.041; M -0.753 ± 0.075; G -0.61 ± 0.036; D -0.718 ± 0.086; Q -0.785 ± 0.081; P -1.08 ± 0.12; T -0.869 ± 0.091; L -0.806 ± 0.059; C -0.663 ± 0.074; W -0.937 ± 0.066; K -0.717 ± 0.08; S -0.608 ± 0.055; N -0.705 ± 0.12; H -1.04 ± 0.19; Y -1.16 ± 0.34; V -1.03 ± 0.072
L67: C -0.693 ± 0.13; N -0.584 ± 0.18; I -0.114 ± 0.14; W -0.465 ± 0.093; V -0.439 ± 0.076; Y -0.873 ± 0.24; Q -0.423 ± 0.076; S -0.603 ± 0.067; A -0.509 ± 0.083; P -0.526 ± 0.094; M 0 ± 0.058; K -0.53 ± 0.08; G -0.438 ± 0.066; F -0.355 ± 0.11; R -0.751 ± 0.074; D -0.706 ± 0.35; H -0.299 ± 0.25; T -0.6 ± 0.077; E -0.743 ± 0.11
E66: C -0.037 ± 0.13; I 0.097 ± 0.067; H -0.002 ± 0.085; W -0.079 ± 0.077; T -0.042 ± 0.049; G -0.118 ± 0.043; Y 0.063 ± 0.069; P -0.235 ± 0.051; N -0.012 ± 0.082; S -0.005 ± 0.05; M 0.111 ± 0.067; V 0.077 ± 0.04; K 0.216 ± 0.056; F 0.103 ± 0.11; L 0.114 ± 0.038; R 0.123 ± 0.043; Q 0.138 ± 0.06
V63: T -0.615 ± 0.056; R -0.73 ± 0.042; M -0.239 ± 0.073; L -0.143 ± 0.045; G -0.482 ± 0.039; Y -0.906 ± 0.12; P -0.577 ± 0.057; N -0.521 ± 0.08; W -0.818 ± 0.07; Q -0.597 ± 0.065; A -0.246 ± 0.055; S -0.693 ± 0.053; H -0.858 ± 0.11; F -0.829 ± 0.17; D -0.497 ± 0.097; C -0.233 ± 0.062
